Values of other authors in PMC4407497.

Assays:
IL-22R1 (Homo sapiens) = IL-22R1 (Homo sapiens) (UniProt Q8N6P7)
IL-22BP (Homo sapiens) = IL-22BP (Homo sapiens) (UniProt Q969J5)
Sequence of UniProt Q969J5 (Q969J5 22-263): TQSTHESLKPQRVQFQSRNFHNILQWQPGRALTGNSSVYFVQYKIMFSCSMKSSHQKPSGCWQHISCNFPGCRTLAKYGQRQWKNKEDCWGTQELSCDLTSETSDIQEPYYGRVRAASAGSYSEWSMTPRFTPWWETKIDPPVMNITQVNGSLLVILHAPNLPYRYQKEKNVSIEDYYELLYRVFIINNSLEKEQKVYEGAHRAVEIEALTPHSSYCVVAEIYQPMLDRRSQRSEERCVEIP

Sequence of UniProt Q8N6P7 (Q8N6P7 16-228): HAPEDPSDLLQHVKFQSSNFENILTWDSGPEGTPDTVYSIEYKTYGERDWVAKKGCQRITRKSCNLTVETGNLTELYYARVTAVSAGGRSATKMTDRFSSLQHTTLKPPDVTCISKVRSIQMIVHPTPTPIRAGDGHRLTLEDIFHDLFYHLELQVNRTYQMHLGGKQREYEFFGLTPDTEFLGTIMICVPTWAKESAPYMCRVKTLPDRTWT

Kd (IL-22R1 (Homo sapiens)): 20 nM | Kd (IL-22BP (Homo sapiens)): 0.001 nM
Substance: IL-22 (from UniProt Q9GZX6)
